Experimental findings from US7125850B2, “Methods of identifying inhibitors of GADD45 polypeptide activity, and inhibitors of such activity” (The United States of America as represented by the …, priority 1999, dated 2006) are described below.

For one data set, the target named is T1, cellular Cdc2 (Homo sapiens, UniProt P06493).
T1 construct: GST-GADD45 fusion protein were incubated with one mg of RKO cellular protein; endogenous in cells; host or cells: RKO (human colon carcinoma)
As to the kind of experiment: GST pull-down from RKO cell lysate, immunoblot for Cdc2. In kind it is binding. The conditions noted are these: 100 ng protein, 1 mg RKO cellular protein. The text has this:
For these experiments, a recombinant glutathione-S-transferase (GST)/GADD45 fusion protein was constructed. The GADD45 insert was PCR amplified from pHul45B2 using the following primers: (SEQ ID NO:3) 5′[…] 3′ and (SEQ ID NO:4) 5′[…] 3′. Products were cloned into a pcrII vector using the TA cloning kit (Invitrogen, San Diego, Calif.). A representative clone was confirmed by sequencing. The selected insert was removed by XhoI and NotI digestion, gel purified using the Wizard DNA Purification Kit (Promega, Madison, Wis.), and ligated into the XhoI/ NotI digested pGEX4T vector (Pharmacia, Piscataway, N.J.). GST-GADD45 fusion protein induction was prepared from freshly transformed BL21 bacterial cells (Novagen). 150 ml of overnight culture was diluted into 1L of LB with ampicillin and grown at 37° C. to late growth phase (OD600 was approximately 0.8). […]
To detect binding of cellular Cdc2 to GST-tagged GADD45, 100 ng of GST or GST-GADD45 fusion protein were incubated with one mg of RKO cellular protein for 4 hr at […]. […] Antibody was detected by a chemiluminescence system in accordance with the instructions of the manufacturer (Amersham, Buckinghamshire, England)
GST-GADD45 fusion protein or GST alone, which were linked to Sepharose beads, were incubated with cellular lysates, isolated, and analyzed by immunoblotting, as described above.
A general note: A western blot detects proteins with antibodies after separation by electrophoresis.

Data set [1] addresses T2, Cdc2/Cyclin B1 complex (Homo sapiens, UniProt P06493). Briefly: Wash off assay: dissociation of immunoprecipitated Cdc2/Cyclin B1 complexes. It counts as biochemical. Further details: One mg of cellular protein was immunoprecipitated with anti-Cyclin B1 antibody and protein A agarose beads; endogenous in cells; host or cells: RKO (human colon carcinoma). The conditions noted are these: 0-500 ng protein, 15 min at 25 C. As to the method: Since GADD45 inhibited Cdc2/Cyclin B1 activity, but only associated with Cdc2, the possibility was considered that GADD45 acts by dissociating this complex. To test this, anti-Cyclin B1 antibody was used to precipitate cellular Cdc2/cyclin B1 complexes (as above). A “wash off assay” was then carried out in the presence of GADD45. Briefly, RKO cellular protein was immunoprecipitated with anti-Cyclin B1 antibody. The immunoprecipitates were washed 3 times with lysis buffer and twice with 10 mM Tris-HCl (pH 7.5), 10 mM Mg Cl2. Samples were then suspended in […] of 10 mM Tris-HCl (pH 7.5), 10 mM MgCl2. Various amounts of rGADD45 (0, 50, 100, 200, 500 ng) or NAP1 (0, 200, 500 ng) was added to the Cdc2/Cyclin B1 immunocomplexes and incubated for 15 min at 25° C. Following incubation, immunoprecipitates were washed twice with lysis buffer, loaded onto SDS-PAGE gel for electrophoresis, and the membrane was immunoblotted with monoclonal Cdc2 antibody for the detection of Cdc2 protein. Prior to the final immunoprecipitation, an aliquot of the solution was analyzed by immunoblotting with an anti-Cyclin B1 antibody to confirm uniform loading. […] To confirm uniform levels of Cyclin B1, the amount of Cyclin B1 was measured by immunoblotting.
Target sequence in this assay (P06493 whole entry, one chain of several): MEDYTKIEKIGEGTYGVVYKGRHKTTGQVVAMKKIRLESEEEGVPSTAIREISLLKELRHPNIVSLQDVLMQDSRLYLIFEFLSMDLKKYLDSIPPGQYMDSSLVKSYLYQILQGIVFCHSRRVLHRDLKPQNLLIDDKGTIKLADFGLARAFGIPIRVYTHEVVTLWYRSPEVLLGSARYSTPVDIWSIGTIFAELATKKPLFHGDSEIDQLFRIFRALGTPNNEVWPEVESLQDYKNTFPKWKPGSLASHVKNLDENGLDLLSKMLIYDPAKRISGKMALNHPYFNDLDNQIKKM

Data set [2] concerns the target T2, Cdc2/Cyclin B1 complex. As to the kind of experiment: Histone H1 kinase assay with purified Cdc2-Cyclin B1 complexes. In kind it is biochemical. Further details: purchased Upstate Biotechnology, Lake Placid, N.Y. The conditions noted are these: for inhibition of histone H1 kinase activity of purified Cdc2/Cyclin B1 complex: 100 ng complex, varying amounts of protein up to 500 ng. As to the method:
In one experiment, 100 ng purified Cdc2-cyclin B1 complexes (Upstate Biotechnology, Lake Placid, N.Y.) were incubated with varying amounts of full length rGADD45 or negative control (NAP 1, Tjandra (1998) Curr. Biol. 8:991–1000; Fujii-Nakata (1992) J. Biol. Chem. 267:20980–20986) polypeptides. For full length rGADD45: 0, 10, 20, 50, 100, 200, and 500 ng were used. For the control (NAP1): 0, 100, 200, and 500 ng were used.
Histone H1 kinase assays were then performed. Briefly, purified Cdc2-Cyclin B1 complexes (Upstate Biotechnology, Lake Placid, N.Y.) were incubated with the indicated amounts of rGADD45 or NAP1 proteins for 5 minutes. Histone H1 kinase assays were then performed in the presence of […] of histone H1 (Upstate, Lake Placid, N.Y.), 15 mM MgCl2, 7 mM β-glycerol phosphate, 1.5 mM EGTA, 0.25 mM sodium orthvanadate, 0.25 mM DTT and […] of [g-32P]ATP in 25 μl. After 15 min at 37° C., the reactions were mixed with an equal amount of standard 2× SDS protein denaturation loading buffer, size-separated on a 12% SDS-PAGE gel, and analyzed by autoradiography.
rGADD45 proteins were prepared as described by Carrier (1994) supra. The rGADD45 proteins that were manufactured included, in addition to the full-length polypeptide, truncated forms containing the first 124 amino acid residues (designated “GADD45 Δ125–166”) or the first 71 amino acid residues (designated “GADD45 Δ72–166”) (see sequence and residue notation of SEQ ID NO:2).
For the histone assays comparing the inhibitory activity of full length and truncated GADD45 constructs, instead of loading samples onto the gel for electrophoretic analysis, […] aliquots were spotted on phosphocellulose paper and then washed three times with 0.75% phosphoric acid. After an acetone rinse, the radioactivity was measured by scintillation counting. The results are the average of three separate experiments.
Target sequence in this assay (P06493 whole entry, species assumed, one chain of several): as the sequence (P06493 whole entry, one chain of several) above

In another data set the target is T3, Cdc2/Cyclin B1 complexes (Homo sapiens, UniProt P06493).
T3 construct: purchased Upstate Biotechnology, Lake Placid, N.Y
As to the kind of experiment: ELISA binding of rGADD45 proteins to purified Cdc2/Cyclin B1. The conditions noted are these: 40 ng protein; for binding to Cdc2/Cyclin B1 in ELISA: 100 ng complex coated. As to the method:
Immulon II immunoabsorption plates (Dynatech) were coated with 100 ng of Cdc2/Cyclin B1 complexes (Upstate Biotechnology, Lake Placid, N.Y.) in PBS and incubated overnight at 4° C. After rinsing with PBST (PBS with 0.05% Tween-20) and blocking in 5% nonfat milk in PBST, 40 ng of either full length or truncated (both deletion constructs, as described above) rGADD45 protein were added. Following incubation for one hour at room temperature, the plates were washed and an anti-GADD45 antibody (Zymed, San Francisco, Calif.) was added at a 1:1000 dilution in PBST with 0.5% milk (PBSTM). After 1 hr at 25° C., the plates were washed, and HRP-anti-rabbit antibody diluted at 1:1000 in PBS™ was added before final washes and development using the 1-step TMB Solution (Pierce, Rockford, Ill.). Development was halted by the addition of 50 μl of 1M H2SO4, and optical density was measured using a platereader.
(ELISA stands for enzyme-linked immunosorbent assay.)

The target in another data set is Cdk2/Cyclin E (Homo sapiens, UniProt P24941). Briefly: Cdk2/Cyclin E histone H1 kinase assay. In kind it is biochemical. The conditions noted are these: up to 3600 ng of full length rGADD45.
Data set [3] deals with T2, Cdc2/Cyclin B1 complex. Briefly: Histone H1 kinase assay with Cdc2/cyclin B1 complex immunoprecipitated from RKO cell lysate. It counts as biochemical. Further details: One mg of cellular protein was immunoprecipitated with anti-Cyclin B1 antibody and protein A agarose beads; endogenous in cells; host or cells: RKO (human colon carcinoma). The conditions noted are these: RKO lysate immunoprecipitate. As to the method: A monoclonal antibody against cyclin B1 was next used to immunoprecipitate Cdc2/cyclin B1 complex from a lysate of human cells. Antibodies against human Cdc2, c-Myc, and NAP-1 were obtained from Santa Cruz Biotechnology, Santa Cruz, Calif. […] The human colon carcinoma line RKO was grown in modified Ham's F12 medium supplemented with 10% fetal bovine serum.
For immunoprecipitation, exponentially growing RKO cells were lysed on ice for 30 min in lysis buffer consisting of 50 mM Tris-HCl (pH 7.5), 120 mM NaCl, 1% NP-40, […], […] and […] of phenylmethylsulfony fluoride. One mg of cellular protein was immunoprecipitated with anti-Cyclin B1 antibody and protein A agarose beads for 4 hr at 4° C. The immunoprecipitates were washed three times with lysis buffer and then loaded onto a SDS-PAGE gel for immunoblot analysis. The presence of Cdc2/Cyclin B1 was confirmed by immunoblotting.
In contrast, rGADD45 had no effect on Cdk2/Cyclin E histone H1 kinase activity. […]
Target sequence in this assay (P06493 whole entry, one chain of several): as above

T3 sequence (P06493 whole entry, species assumed, one chain of several): as the sequence (P06493 whole entry, one chain of several) above
T1 sequence (P06493 whole entry, the tested form may be a part): as the sequence (P06493 whole entry, one chain of several) above

Take “GST: glutathione-S-transferase alone, linked to Sepharose beads, control [reference compound]”: the “association with cellular Cdc2” value in the data set with cellular Cdc2 was “no Cdc2 was detected”.

B1: NAP-1: negative control protein of similar size and charge as GADD45 (protein, UniProt P55209 2-388, looked up)
Nucleosome assembly protein …: ADIDNKEQSELDQDLDDVEEVEEEETGEETKLKARQLTVQMMQNPQILAALQERLDGLVETPTGYIESLPRVVKRRVNALKNLQVKCAQIEAKFYEEVHDLERKYAVLYQPLFDKRFEIINAIYEPTEEECEWKPDEEDEISEELKEKAKIEDEKKDEEKEDPKGIPEFWLTVFKNVDLLSDMVQEHDEPILKHLKDIKVKFSDAGQPMSFVLEFHFEPNEYFTNEVLTKTYRMRSEPDDSDPFSFDGPEIMGCTGCQIDWKKGKNVTLKTIKKKQKHKGRGTVRTVTKTVSNDSFFNFFAPPEVPESGDLDDDAEAILAADFEIGHFLRERIIPRSVLYFTGEAIEDDDDDYDEEGEEADEEGEEEGDEENDPDYDPKKDQNPAEC
With B1, the “Cdc2 level remaining in Cyclin B1 immune complexes (dissociation of complex)” value with Cdc2/Cyclin B1 complex [1] is given as “no effect”. The “inhibition of histone H1 kinase activity of purified Cdc2/Cyclin B1 complex” value (shortened to “inhibition … of purified Cdc2/Cyclin B1 complex”) with Cdc2/Cyclin B1 complex [2] is reported as “no appreciable effect”.

B2: rGADD45: full length recombinant human GADD45 polypeptide (SEQ ID NO:2), bacterially expressed, histidine tag removed (protein, listed as Rattus norvegicus)
chain: MTLEEFSAAEQKIERMDTVGDALEEVLSKARSQRTITVGVYEAAKLLNVDPDNVVLCLLAADEDDDRDVALQIHFTLIRAFCCENDINILRVSNPGRLAELLLLENDKSPAESGGLAQTPDLHCVLVTNPHSSQWKDPALSQLICFCRESRYMDQWVPVINLPER
modifications: rat growth arrest and DNA-damage-inducible protein (rGADD45)
In the case of B2, the “binding to Cdc2/Cyclin B1 in ELISA” value with Cdc2/Cyclin B1 complexes is reported as “significant binding over background level”. Further, the “Cdc2 level remaining in Cyclin B1 immune complexes (dissociation of complex)” value with Cdc2/Cyclin B1 complex [1] is given as “did reduce the Cdc2 level”. Further, in the data set with Cdk2/Cyclin E, the “effect on Cdk2/Cyclin E histone H1 kinase activity” value is listed as “no effect”. The “Cdc2/Cyclin B1 histone kinase activity, % of control” value in the data set with Cdc2/Cyclin B1 complex [2] (50 ng protein) is reported as “less than 40%”. The “inhibition … of purified Cdc2/Cyclin B1 complex” value with Cdc2/Cyclin B1 complex [2] was “strongly inhibited”. Also, the “inhibition of histone phosphorylation by Cdc2/Cyclin B1” value with Cdc2/Cyclin B1 complex [2] (larger amounts than 50 ng) is “strong inhibition”. The “inhibition of enzymatic activity of isolated (immunoprecipitated) Cdc2/cyclin B1 complex” value with Cdc2/Cyclin B1 complex [3] was “progressive inhibition”.

B3: GADD45 Δ125–166: truncated rGADD45 containing the first 124 amino acid residues (protein, listed as Homo sapiens)
chain: MTLEEFSAGEQKTERMDKVGDALEEVLSKALSQRTITVGVYEAAKLLNVDPDNVVLCLLAADEDDDRDVALQIHFTLIQAFCCENDINILRVSNPGRLAELLLLETDAGPAASEGAEQPPDLHC
Turning to B3, in the data set with Cdc2/Cyclin B1 complexes, the “binding relative to full-length rGADD45 protein” value is recorded as 77% and the “binding to Cdc2/Cyclin B1 in ELISA” value was “significant binding over background level”. In addition, the “inhibition … of purified Cdc2/Cyclin B1 complex” value in the data set with Cdc2/Cyclin B1 complex [2] was “able to inhibit”.

B4: GADD45 Δ72–166: truncated rGADD45 containing the first 71 amino acid residues (protein, listed as Homo sapiens)
chain: MTLEEFSAGEQKTERMDKVGDALEEVLSKALSQRTITVGVYEAAKLLNVDPDNVVLCLLAADEDDDRDVAL
Take B4: the “binding to Cdc2/Cyclin B1 in ELISA” value in the data set with Cdc2/Cyclin B1 complexes is “No appreciable binding”. In the data set with Cdc2/Cyclin B1 complex [2], the “inhibition … of purified Cdc2/Cyclin B1 complex” value was “failed to inhibit”.
